Reference: IntAct's records for PubMed 40624043

B1: NTF2-related export protein 2 (Homo sapiens), Q9NPJ8-3 (parent)
chain: MRKYRSHWSQGDREGYQRRSNYYEGPHTSHSSPADRTREEVVTPTLPEHTATRSQMATSLDFKTYVDQACRAAEEFVNIYYETMDKRRRALTRLYLDKATLIWNGNAVSGLDALNNFFDTLPSSEFQVNMLDCQPVHEQATQSQTTVLVVTSGTVKFDGNKQHFFNQNFLLTAQSTPNNTVWKIASDCFRFQDWSSS
partner: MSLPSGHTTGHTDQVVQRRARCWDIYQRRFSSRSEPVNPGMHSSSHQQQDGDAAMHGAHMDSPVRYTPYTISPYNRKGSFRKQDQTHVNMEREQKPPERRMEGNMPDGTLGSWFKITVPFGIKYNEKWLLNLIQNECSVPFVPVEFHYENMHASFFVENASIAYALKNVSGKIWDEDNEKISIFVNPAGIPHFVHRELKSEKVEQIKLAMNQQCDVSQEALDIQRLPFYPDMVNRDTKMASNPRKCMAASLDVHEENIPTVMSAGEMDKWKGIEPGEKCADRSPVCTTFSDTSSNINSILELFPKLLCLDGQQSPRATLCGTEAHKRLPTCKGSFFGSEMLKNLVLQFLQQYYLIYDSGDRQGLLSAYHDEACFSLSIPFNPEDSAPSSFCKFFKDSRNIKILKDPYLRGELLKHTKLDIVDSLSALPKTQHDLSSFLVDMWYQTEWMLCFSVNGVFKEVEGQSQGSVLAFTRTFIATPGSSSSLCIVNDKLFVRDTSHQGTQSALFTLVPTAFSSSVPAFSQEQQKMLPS
B2: NTF2-related export protein 2 (Homo sapiens), Q9NPJ8-3 (parent)
chain: B1 chain
partner: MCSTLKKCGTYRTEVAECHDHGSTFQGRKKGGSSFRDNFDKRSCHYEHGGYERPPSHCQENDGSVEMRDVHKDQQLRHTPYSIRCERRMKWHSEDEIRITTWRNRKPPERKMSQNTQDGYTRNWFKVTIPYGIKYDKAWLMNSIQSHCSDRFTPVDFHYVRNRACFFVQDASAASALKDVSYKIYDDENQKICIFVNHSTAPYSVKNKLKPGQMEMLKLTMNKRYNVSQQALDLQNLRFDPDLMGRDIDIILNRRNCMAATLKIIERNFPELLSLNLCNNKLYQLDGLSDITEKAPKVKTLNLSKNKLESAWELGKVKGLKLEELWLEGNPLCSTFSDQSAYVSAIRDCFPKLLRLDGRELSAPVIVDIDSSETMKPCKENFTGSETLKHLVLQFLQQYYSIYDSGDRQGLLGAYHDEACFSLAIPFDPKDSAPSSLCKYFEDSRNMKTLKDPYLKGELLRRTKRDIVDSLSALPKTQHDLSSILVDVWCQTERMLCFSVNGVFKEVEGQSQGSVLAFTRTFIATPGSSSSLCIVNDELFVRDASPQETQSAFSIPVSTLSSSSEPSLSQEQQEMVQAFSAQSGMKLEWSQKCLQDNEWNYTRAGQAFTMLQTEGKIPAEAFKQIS

Variants of: B1
Conditions: with NXF3, Q9H4D5-1

effect of a mutation on the interaction | Variant
with no effect | MRKYRSHWSQGDREGYQRRSNYYEGPHTSHSSPADRTREEVVTPTLPEHTATRSQMATSLDFKTYVDQACRAAEEFVNIYYETMDKRRRSLTRLYLDKATLIWNGNAVSGLDALNNFFDTLPSSEFQVNMLDCQPVHEQATQSQTTVLVVTSGTVKFDGNKQHFFNQNFLLTAQSTPNNTVWKIASDCFRFQDWSSS [A90S]

Variants of: B2
Conditions: with nxf2_human NXF2B

effect of a mutation on the interaction | Variant
with no effect | MRKYRSHWSQGDREGYQRRSNYYEGPHTSHSSPADRTREEVVTPTLPEHTATRSQMATSLDFKTYVDQACRAAEEFVNIYYETMDKRRRSLTRLYLDKATLIWNGNAVSGLDALNNFFDTLPSSEFQVNMLDCQPVHEQATQSQTTVLVVTSGTVKFDGNKQHFFNQNFLLTAQSTPNNTVWKIASDCFRFQDWSSS [A90S]
